Source: patent publication US20180057581A1 (MorphoSys, published 2018)

T1: Recombinant human sgM-CSF (human, UniProt P09603 33-255)
T1 construct: also called human secreted glycosylated M-CSF; Human M-CSF
T1 sequence: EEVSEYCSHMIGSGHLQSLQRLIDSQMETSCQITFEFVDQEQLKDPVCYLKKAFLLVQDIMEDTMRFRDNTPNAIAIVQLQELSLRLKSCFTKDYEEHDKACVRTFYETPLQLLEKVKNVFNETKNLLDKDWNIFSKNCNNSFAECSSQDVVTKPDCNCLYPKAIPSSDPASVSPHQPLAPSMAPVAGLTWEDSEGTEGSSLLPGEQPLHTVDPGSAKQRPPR

T2: Recombinant cynomolgus monkey sgM-CSF (cynomolgus (Macaca fascicularis), UniProt P09603 33-255 (human entry), limits assumed)
T2 chain: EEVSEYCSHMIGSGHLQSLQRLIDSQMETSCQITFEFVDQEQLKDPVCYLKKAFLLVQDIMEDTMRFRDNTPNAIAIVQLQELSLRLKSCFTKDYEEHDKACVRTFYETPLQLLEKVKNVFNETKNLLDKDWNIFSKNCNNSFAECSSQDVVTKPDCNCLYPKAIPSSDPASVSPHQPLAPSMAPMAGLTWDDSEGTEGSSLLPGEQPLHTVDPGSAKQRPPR

T3: human M-CSF (human, UniProt P09603 33-255, limits assumed)
T3 construct: also called M-CSF (human); CSF-1
T3 sequence: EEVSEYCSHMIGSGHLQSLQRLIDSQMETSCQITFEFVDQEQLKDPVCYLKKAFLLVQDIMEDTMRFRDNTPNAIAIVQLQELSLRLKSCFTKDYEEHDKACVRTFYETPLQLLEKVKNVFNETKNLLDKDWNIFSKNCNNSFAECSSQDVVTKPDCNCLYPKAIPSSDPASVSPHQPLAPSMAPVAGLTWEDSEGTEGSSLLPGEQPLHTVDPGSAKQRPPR


Legend:
[1] = molecular target: T1, Recombinant human sgM-CSF; experiment: Receptor binding assay, inhibition of human M-CSF binding to M-CSF receptor (competitor CSF1-R-Fc); Table 12 summary
[2] = molecular target: T2, Recombinant cynomolgus monkey sgM-CSF; experiment: cell-based or functional assay
[3] = molecular target: T1, Recombinant human sgM-CSF; experiment: cell-based or functional assay
[4] = molecular target: T1, Recombinant human sgM-CSF; experiment: Table 12 summary, criterion Binding, Human M-CSF; assay and antibody format not named there
Description: The monovalent affinity of the antibodies of the present disclosure was determined by soluble equilibrium titration (Haenel et al. (2005) Anal Biochem 339, 182-4).

GM-CSF = GM-CSF (Homo sapiens (Human), UniProt P04141 18-144); experiment: not described (Table 12, criterion Binding)
[5] = molecular target: T2, Recombinant cynomolgus monkey sgM-CSF; experiment: Receptor binding assay, inhibition of cynomolgus M-CSF binding to M-CSF receptor (competitor CSF1-R-Fc); Table 12 summary
Description: Complexes were then transferred to 384 well MSD plates coated with 2 μg/ml of the corresponding receptor. Plates were then washed and incubated with the streptavidin/ECL conjugate for 2 h with shaking at room temperature. 35 μl MSD read buffer T with surfactant was then added per well and subsequently measured using MSD Sector Imager 6000.

[6] = molecular target: T2, Recombinant cynomolgus monkey sgM-CSF; experiment: ELISA
Description: (§1) BSA was used as a negative control substrate.
(§2) After blocking of plates with 5% skim milk powder in PBS, Fab-containing E. coli lysates, IgG-containing cell culture supernatants or purified IgG or Fab proteins were added. Binding of Fabs or IgGs was detected by F(ab)₂ specific goat anti-human IgG conjugated to alkaline phosphatase (Dianova Cat# 109-055-097; diluted 1:5000) using Attophos fluorescence substrate (Roche, #11681982001). Fluorescence emission at 535 nm was recorded with excitation at 430 nm.

human M-CSF = molecular target: T3, human M-CSF; experiment: ELISA
Description: as §1, §2

Chain of GM-CSF (P04141 18-144 limits assumed): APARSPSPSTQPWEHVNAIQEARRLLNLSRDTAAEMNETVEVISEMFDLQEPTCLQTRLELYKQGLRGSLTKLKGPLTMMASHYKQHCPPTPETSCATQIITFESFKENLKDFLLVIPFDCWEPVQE

| IC50 [1] [nM] | Kd [4] [nM] | binding result (GM-CSF) | IC50 [5] [nM] | ELISA fluorescence units [6] [units] | ELISA fluorescence units (human M-CSF) [units] | Binder | Cell viability assay (IC50), Cynomolgus M-CSF [2] [nM] | Cell viability assay (IC50), Human M-CSF [3] [nM] |
| --- | --- | --- | --- | --- | --- | --- | --- | --- |
| 0.031 | 0.038 | no binding | 0.021 | > 35000 | > 35000 | 8.10.3F (format not stated) (antibody, V domains shown, Prior art antibody; also called 8.10.F3) VH: EVQLVESGGGLVQPGGSLRLSCAASGFTFSSFSMTWVRQAPGKGLEWVSYISSRSSTISYADSVKGRFTISRDNAKNSLYLQMNSLRDEDTAVYYCARDPLLAGATFFDYWGQGTLVTVSS VL: not shown | 0.085 | 0.071 |
| 0.027 | > 1 | no binding | 0.028 | > 35000 | > 35000 | HeRX1-10G1 (format not stated) (antibody, V domains shown, Prior art antibody) VH: QVQLQESGPGLVKPSQTLSLTCTVSDYSITSDYAWNWIRQFPGKGLEWMGYISYSGSTSYNPSLKSRITISRDTSKNQFSLQLNSVTAADTAVYYCASFDYAHAMDYWGQGTTVTVSS VL: DIVLTQSPAFLSVTPGEKVTFTCQASQSIGTSIHWYQQKTDQAPKLLIKYASESISGIPSRFSGSGSGTDFTLTISSVEAEDAADYYCQQINSWPTTFGGGTKLEIKR | 0.004 | 0.004 |
